Experimental data published in patent US10512669.
Values joined by “and” are separate entries in the source; they are usually repeats but may differ in a detail not shown here. Equal entries are not always repeated.

Target: TACE expressed on resting and LPS-stimulated THP-1 cells, P78536
Test: cell-based or functional assay

Sequence of TACE expressed on resting and LPS-stimulated THP-1 cells, P78536 (P78536 215-824 limits assumed): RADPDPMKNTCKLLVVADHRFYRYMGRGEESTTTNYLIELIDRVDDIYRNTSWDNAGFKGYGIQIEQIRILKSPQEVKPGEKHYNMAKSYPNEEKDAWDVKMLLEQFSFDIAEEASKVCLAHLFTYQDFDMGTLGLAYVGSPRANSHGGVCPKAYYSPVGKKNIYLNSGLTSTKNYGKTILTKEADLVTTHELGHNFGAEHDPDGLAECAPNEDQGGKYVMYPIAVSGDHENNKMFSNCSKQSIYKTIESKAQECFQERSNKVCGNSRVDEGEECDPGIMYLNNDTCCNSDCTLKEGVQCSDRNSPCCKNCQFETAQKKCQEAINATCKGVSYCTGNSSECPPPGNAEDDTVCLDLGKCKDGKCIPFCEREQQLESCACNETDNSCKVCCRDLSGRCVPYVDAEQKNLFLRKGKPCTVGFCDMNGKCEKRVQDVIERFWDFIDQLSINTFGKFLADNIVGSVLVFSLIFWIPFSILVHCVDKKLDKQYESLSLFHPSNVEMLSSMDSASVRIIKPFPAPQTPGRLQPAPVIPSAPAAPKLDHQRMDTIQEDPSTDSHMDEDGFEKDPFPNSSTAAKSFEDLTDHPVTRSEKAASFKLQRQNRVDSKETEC

IC50, inhibition of TACE in cell-based assay on THP-1 cells: 15 µg/ml and 7.4 µM
Binder: GFCRCLCRRGVCRCICTR (modifications not checked) [Rhesus θ-defensin-1 (RTD-1)]
